The record followed here is patent publication US20090166224A1 (published 2009).

The assay deals with T1, CARBOXYPEPTIDASE N 83 KDA CHAIN (human, UniProt P22792 22-545).
T1 construct: from human serum; also called CBP8
T1 sequence (looked up): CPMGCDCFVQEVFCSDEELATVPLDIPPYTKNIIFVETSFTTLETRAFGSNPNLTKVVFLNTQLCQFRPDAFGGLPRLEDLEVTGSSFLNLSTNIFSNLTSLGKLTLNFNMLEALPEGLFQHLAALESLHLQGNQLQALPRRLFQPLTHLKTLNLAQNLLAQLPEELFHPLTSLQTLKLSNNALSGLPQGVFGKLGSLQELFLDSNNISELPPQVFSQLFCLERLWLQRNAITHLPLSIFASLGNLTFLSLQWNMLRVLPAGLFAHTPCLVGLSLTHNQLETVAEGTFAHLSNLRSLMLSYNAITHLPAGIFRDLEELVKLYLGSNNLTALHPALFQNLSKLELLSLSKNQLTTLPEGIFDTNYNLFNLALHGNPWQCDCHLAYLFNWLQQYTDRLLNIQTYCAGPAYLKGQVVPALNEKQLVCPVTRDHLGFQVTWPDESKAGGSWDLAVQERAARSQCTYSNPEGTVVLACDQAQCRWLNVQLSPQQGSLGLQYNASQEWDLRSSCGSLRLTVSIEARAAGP
Put plainly: human serum on Con A/WGA/Jacalin column, lectin-specific displacer fraction, LC-MS/MS; grade = SEQUEST rank group (+ = ranks 1-5, ++++ = 16-20).

B1: wheat germ agglutinin (WGA), agarose-bound (other, UniProt P10968 27-197, looked up)
chain: QRCGEQGSNMECPNNLCCSQYGYCGMGGDYCGKGCQNGACWTSKRCGSQAGGATCTNNQCCSQYGYCGFGAEYCGAGCQGGPCRADIKCGSQAGGKLCPNNLCCSQWGFCGLGSEFCGGGCQSGACSTDKPCGKDAGGRVCTNNYCCSKWGSCGIGPGYCGAGCQSGGCDG
modifications: immobilized on agarose
notes: Lectin; released with N-acetyl-glucosamine; Coated on the plate in the lectin ELISA
B1: the “SEQUEST ranking (relative abundance in the WGA displacement fraction)” value was 6 to 10 rank.
